Results published in PMC7954794 (2021).

B1: S. cerevisiae Abp1 (full length; SH3 domain 535-592 mutated) / Hua2 (parent complex)
chain 1: MALEPIDYTTHSREIDAEYLKIVRGSDPDTTWLIISPNAKKEYEPESTGSSFHDFLQLFDETKVQYGLARVSPPGSDVEKIIIIGWCPDSAPLKTRASFAANFAAVANNLFKGYHVQVTARDEDDLDENELLMKISNAAGARYSIQTSSKQQGKASTPPVKKSFTPSKSPAPVSKKEPVKTPSPAPAAKISSRVNDNNDDDDWNEPELKERDFDQAPLKPNQSSYKPIGKIDLQKVIAEEKAKEDPRLVQKPTAAGSKIDPSSDIANLKNESKLKRDSEFNSFLGTTKPPSMTESSLKNDDDKVIKGFRNEKSPAQLWAERKAKQNSGNAETKAEAPKPEVPEDEPEGEPDVKDLKSKFEGLAASEKEEEEMENKFAPPPKKSEPTIISPKPFSKPQEPVKAEEAEQPKTDYKKIGNPLPGMHIEADNEEEPEENDDDWDDDEDEAAQPPLPSRNVASGAPVQKEEPEQEEIAPSLPSRNSIPAPKQEEAPEQAPEEEIEEEAEEAAPQLPSRSSAAPPPPPRRATPEKKPKENPWATAEYDYDAAEDNELTFVENDKIINIEFVDDDWWLGELEKDGSKGLFPSNYVSLGN
chain 2: MQQTKFGKMYLDHDSVVEYSEDEIVEADRITLGYKKRLSMIENQMRHLLEDFSLDVQQIEPILADLQKYYDAFLQLLQKRNKSLQCKRSTHQPVPSPMNSQTSTNAKVNLSGKLMKFQLNSVQKFDEENILRILQNKIEFEHYFQIDKGKKQKVLLLAVYQCLNGPTRLHKVLNIEGIIHNNSIRTILGKQVSSSKWTVFLYDVKLVLLAHRQDVPNLETSKMIVRYGDLFPCALYFKDHTAY

Variants of: B1
Experiment: DHFR protein-fragment complementation in yeast (Abp1-DHFR F[1,2] x partner-DHFR F[3]), deep mutational scanning, second methotrexate selection vs reference; S. cerevisiae, DHFR-PCA selection in liquid with methotrexate at 30 C, two 72 h selections (the score uses the second); reference = the pre-selection culture

Variant	screen value
chain 1 S585R	-1.55 DMS score: mean over two replicates of log2(f_test/f_ref + 0.5)/ln 2, minus the synonymous-codon median (not a log2 …
chain 1 S585A	1.11 DMS score: mean over two replicates of log2(f_test/f_ref + 0.5)/ln 2, minus the synonymous-codon median (not a log2 …
chain 1 V554A	0.779 DMS score: mean over two replicates of log2(f_test/f_ref + 0.5)/ln 2, minus the synonymous-codon median (not a log2 …
chain 1 K580A	-0.331 DMS score: mean over two replicates of log2(f_test/f_ref + 0.5)/ln 2, minus the synonymous-codon median (not a log2 …
chain 1 N549K	-0.863 DMS score: mean over two replicates of log2(f_test/f_ref + 0.5)/ln 2, minus the synonymous-codon median (not a log2 …
chain 1 N549V	1.32 DMS score: mean over two replicates of log2(f_test/f_ref + 0.5)/ln 2, minus the synonymous-codon median (not a log2 …
chain 1 Y541Q	-2.54 DMS score: mean over two replicates of log2(f_test/f_ref + 0.5)/ln 2, minus the synonymous-codon median (not a log2 …
chain 1 D548L	-0.0418 DMS score: mean over two replicates of log2(f_test/f_ref + 0.5)/ln 2, minus the synonymous-codon median (not a log2 …
chain 1 W536F	-0.302 DMS score: mean over two replicates of log2(f_test/f_ref + 0.5)/ln 2, minus the synonymous-codon median (not a log2 …
chain 1 W536S	-0.564 DMS score: mean over two replicates of log2(f_test/f_ref + 0.5)/ln 2, minus the synonymous-codon median (not a log2 …
chain 1 W536Q	-0.538 DMS score: mean over two replicates of log2(f_test/f_ref + 0.5)/ln 2, minus the synonymous-codon median (not a log2 …
chain 1 W536T	-0.062 DMS score: mean over two replicates of log2(f_test/f_ref + 0.5)/ln 2, minus the synonymous-codon median (not a log2 …
chain 1 D566K	-2.34 DMS score: mean over two replicates of log2(f_test/f_ref + 0.5)/ln 2, minus the synonymous-codon median (not a log2 …
chain 1 G591E	1.01 DMS score: mean over two replicates of log2(f_test/f_ref + 0.5)/ln 2, minus the synonymous-codon median (not a log2 …
chain 1 G591R	-0.62 DMS score: mean over two replicates of log2(f_test/f_ref + 0.5)/ln 2, minus the synonymous-codon median (not a log2 …
chain 1 N556S	0.415 DMS score: mean over two replicates of log2(f_test/f_ref + 0.5)/ln 2, minus the synonymous-codon median (not a log2 …
chain 1 A545S	0.0984 DMS score: mean over two replicates of log2(f_test/f_ref + 0.5)/ln 2, minus the synonymous-codon median (not a log2 …
chain 1 Y587F	-0.234 DMS score: mean over two replicates of log2(f_test/f_ref + 0.5)/ln 2, minus the synonymous-codon median (not a log2 …

Variant	screen value
chain 1 S579V	-0.988 DMS score: mean over two replicates of log2(f_test/f_ref + 0.5)/ln 2, minus the synonymous-codon median (not a log2 …
chain 1 I559L	-0.0963 DMS score: mean over two replicates of log2(f_test/f_ref + 0.5)/ln 2, minus the synonymous-codon median (not a log2 …
chain 1 D542C	0.23 DMS score: mean over two replicates of log2(f_test/f_ref + 0.5)/ln 2, minus the synonymous-codon median (not a log2 …
chain 1 V565K	-2.9 DMS score: mean over two replicates of log2(f_test/f_ref + 0.5)/ln 2, minus the synonymous-codon median (not a log2 …
chain 1 L571E	1.04 DMS score: mean over two replicates of log2(f_test/f_ref + 0.5)/ln 2, minus the synonymous-codon median (not a log2 …
chain 1 E555S	0.724 DMS score: mean over two replicates of log2(f_test/f_ref + 0.5)/ln 2, minus the synonymous-codon median (not a log2 …
chain 1 E555D	-1 DMS score: mean over two replicates of log2(f_test/f_ref + 0.5)/ln 2, minus the synonymous-codon median (not a log2 …
chain 1 E563I	-1.57 DMS score: mean over two replicates of log2(f_test/f_ref + 0.5)/ln 2, minus the synonymous-codon median (not a log2 …
chain 1 T552R	-1.02 DMS score: mean over two replicates of log2(f_test/f_ref + 0.5)/ln 2, minus the synonymous-codon median (not a log2 …
chain 1 L574N	0.59 DMS score: mean over two replicates of log2(f_test/f_ref + 0.5)/ln 2, minus the synonymous-codon median (not a log2 …
chain 1 L574R	0.641 DMS score: mean over two replicates of log2(f_test/f_ref + 0.5)/ln 2, minus the synonymous-codon median (not a log2 …
chain 1 A546D	0.862 DMS score: mean over two replicates of log2(f_test/f_ref + 0.5)/ln 2, minus the synonymous-codon median (not a log2 …
chain 1 A546I	0.793 DMS score: mean over two replicates of log2(f_test/f_ref + 0.5)/ln 2, minus the synonymous-codon median (not a log2 …
chain 1 A546K	-0.851 DMS score: mean over two replicates of log2(f_test/f_ref + 0.5)/ln 2, minus the synonymous-codon median (not a log2 …
chain 1 E540A	-0.942 DMS score: mean over two replicates of log2(f_test/f_ref + 0.5)/ln 2, minus the synonymous-codon median (not a log2 …
chain 1 E575A	0.223 DMS score: mean over two replicates of log2(f_test/f_ref + 0.5)/ln 2, minus the synonymous-codon median (not a log2 …
chain 1 E550Q	-2.17 DMS score: mean over two replicates of log2(f_test/f_ref + 0.5)/ln 2, minus the synonymous-codon median (not a log2 …
chain 1 E547N	-1.94 DMS score: mean over two replicates of log2(f_test/f_ref + 0.5)/ln 2, minus the synonymous-codon median (not a log2 …

Now from value to variant:

screen value	Variant
-2.89 DMS score: mean over two replicates of log2(f_test/f_ref + 0.5)/ln 2, minus the synonymous-codon median (not a log2 …	chain 1 S585K
-0.15 DMS score: mean over two replicates of log2(f_test/f_ref + 0.5)/ln 2, minus the synonymous-codon median (not a log2 …	chain 1 V554W
-0.165 DMS score: mean over two replicates of log2(f_test/f_ref + 0.5)/ln 2, minus the synonymous-codon median (not a log2 …	chain 1 K580I
-0.619 DMS score: mean over two replicates of log2(f_test/f_ref + 0.5)/ln 2, minus the synonymous-codon median (not a log2 …	chain 1 K580M
-0.508 DMS score: mean over two replicates of log2(f_test/f_ref + 0.5)/ln 2, minus the synonymous-codon median (not a log2 …	chain 1 K580C
0.0627 DMS score: mean over two replicates of log2(f_test/f_ref + 0.5)/ln 2, minus the synonymous-codon median (not a log2 …	chain 1 K580V
0.522 DMS score: mean over two replicates of log2(f_test/f_ref + 0.5)/ln 2, minus the synonymous-codon median (not a log2 …	chain 1 I560V
-0.419 DMS score: mean over two replicates of log2(f_test/f_ref + 0.5)/ln 2, minus the synonymous-codon median (not a log2 …	chain 1 I560Q
-0.211 DMS score: mean over two replicates of log2(f_test/f_ref + 0.5)/ln 2, minus the synonymous-codon median (not a log2 …	chain 1 N561D
-0.44 DMS score: mean over two replicates of log2(f_test/f_ref + 0.5)/ln 2, minus the synonymous-codon median (not a log2 …	chain 1 P535K
0.129 DMS score: mean over two replicates of log2(f_test/f_ref + 0.5)/ln 2, minus the synonymous-codon median (not a log2 …	chain 1 P535L
0.431 DMS score: mean over two replicates of log2(f_test/f_ref + 0.5)/ln 2, minus the synonymous-codon median (not a log2 …	chain 1 D548S
-0.288 DMS score: mean over two replicates of log2(f_test/f_ref + 0.5)/ln 2, minus the synonymous-codon median (not a log2 …	chain 1 K576S
-0.58 DMS score: mean over two replicates of log2(f_test/f_ref + 0.5)/ln 2, minus the synonymous-codon median (not a log2 …	chain 1 K576N
-2.96 DMS score: mean over two replicates of log2(f_test/f_ref + 0.5)/ln 2, minus the synonymous-codon median (not a log2 …	chain 1 D568T
0.961 DMS score: mean over two replicates of log2(f_test/f_ref + 0.5)/ln 2, minus the synonymous-codon median (not a log2 …	chain 1 G591P
-0.169 DMS score: mean over two replicates of log2(f_test/f_ref + 0.5)/ln 2, minus the synonymous-codon median (not a log2 …	chain 1 N556K
-0.621 DMS score: mean over two replicates of log2(f_test/f_ref + 0.5)/ln 2, minus the synonymous-codon median (not a log2 …	chain 1 A545C

screen value	Variant
0.224 DMS score: mean over two replicates of log2(f_test/f_ref + 0.5)/ln 2, minus the synonymous-codon median (not a log2 …	chain 1 A545K
0.88 DMS score: mean over two replicates of log2(f_test/f_ref + 0.5)/ln 2, minus the synonymous-codon median (not a log2 …	chain 1 F553I
-2.26 DMS score: mean over two replicates of log2(f_test/f_ref + 0.5)/ln 2, minus the synonymous-codon median (not a log2 …	chain 1 Y587A
0.907 DMS score: mean over two replicates of log2(f_test/f_ref + 0.5)/ln 2, minus the synonymous-codon median (not a log2 …	chain 1 V565C
-1.83 DMS score: mean over two replicates of log2(f_test/f_ref + 0.5)/ln 2, minus the synonymous-codon median (not a log2 …	chain 1 V565M
0.614 DMS score: mean over two replicates of log2(f_test/f_ref + 0.5)/ln 2, minus the synonymous-codon median (not a log2 …	chain 1 L571F
-0.256 DMS score: mean over two replicates of log2(f_test/f_ref + 0.5)/ln 2, minus the synonymous-codon median (not a log2 …	chain 1 E555G
0.193 DMS score: mean over two replicates of log2(f_test/f_ref + 0.5)/ln 2, minus the synonymous-codon median (not a log2 …	chain 1 E555R
-0.1 DMS score: mean over two replicates of log2(f_test/f_ref + 0.5)/ln 2, minus the synonymous-codon median (not a log2 …	chain 1 D544E
-0.992 DMS score: mean over two replicates of log2(f_test/f_ref + 0.5)/ln 2, minus the synonymous-codon median (not a log2 …	chain 1 E563C
-1.03 DMS score: mean over two replicates of log2(f_test/f_ref + 0.5)/ln 2, minus the synonymous-codon median (not a log2 …	chain 1 L574V
-1.77 DMS score: mean over two replicates of log2(f_test/f_ref + 0.5)/ln 2, minus the synonymous-codon median (not a log2 …	chain 1 L582R
-1.44 DMS score: mean over two replicates of log2(f_test/f_ref + 0.5)/ln 2, minus the synonymous-codon median (not a log2 …	chain 1 L582I
0.502 DMS score: mean over two replicates of log2(f_test/f_ref + 0.5)/ln 2, minus the synonymous-codon median (not a log2 …	chain 1 A546E
0.35 DMS score: mean over two replicates of log2(f_test/f_ref + 0.5)/ln 2, minus the synonymous-codon median (not a log2 …	chain 1 A546T
-0.61 DMS score: mean over two replicates of log2(f_test/f_ref + 0.5)/ln 2, minus the synonymous-codon median (not a log2 …	chain 1 T538E
0.0744 DMS score: mean over two replicates of log2(f_test/f_ref + 0.5)/ln 2, minus the synonymous-codon median (not a log2 …	chain 1 T538F
-1.31 DMS score: mean over two replicates of log2(f_test/f_ref + 0.5)/ln 2, minus the synonymous-codon median (not a log2 …	chain 1 N592H
